In the domain aggregation screens of Martell et al. (2025):

Test: soluble fraction after stress (log2 fold change); higher = more stays soluble; pooled small domains, quantitative proteomics
Details: stress: 75 degC
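Also: 20 min heating vs room temperature control held 20 min.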

Row | Sequence | soluble fraction (log2)
1 | HMSNPPLPFLAKTKVSWTGEQDGDLGFLENEVVKVFHVVDELWWQGSLSRNGAEGIFPRDFVEVISAP | -2.09
2 | HMSNSWSYSEFMKAVESGQVESVTISGQSIKGTSRGGQAFESVLPAFDDKLMDTLLVNDVEVIGEKP | 0.556
3 | HMSNTGDIIRKLREESGVTAKELAHRIGLSASQMSRLESGKRRINSEVLTRIARALEVAPSQLID | -0.439
4 | HMSNTIFGINGPVVTVASKDFSMQEMVYVGNERLVGEVISIDDDLTTIQVYEVTTGLKPGEPVVGTGSAM | -0.34
5 | HMSNVDYSQFKKDTVVEHTKFGRGIIIQTSGDGEDKIAAIAFKGLGVKRFSLAIAAASLKIIGKNDE | -2.49
6 | HMSNYFIEISKDSLARINDEIELDVLRETSDTIIISQEEKTNTISSFIKVLFERQIDILSIQNR | 0.0911
7 | HMSNYYNILGVNKSSTQDEIKKAFRKKAVEHHPDKGGNEATFKKINEAYNTLSDNNKRHMYDMQQSG | 0.119
8 | HMSPDALSNLPIGSEIKFTLWDGTEKRLVKHPAAYQFSRPFWMNLNEYTYVPVNRIPKNYEVIRL | 0.182
9 | HMSPEVEEISIDHLKAGMRILSDLRLPNGTLVAPKGSVVDAHFIKIVENYVISYFGNPFPDRIKVIM | -1.95
10 | HMSPEWTPAEQDAIDKASEGEYGEALQRVLSGDYEPMDIPDALWGVQQVADKDTYSSIQKKIADIGN | 0.383
11 | HMSPIPLPVERAIHKLGSDISLARRRRHISQASLAERMGASLSTVRRMEKGDVRVPIHFFARALHVFG | 0.123
12 | HMSPIQLKYNEYLIYIDEGKINTAEIHGNKITGKLKEGSEYVVTIYPELIASITEKLAENNVQTQLIQ | -0.0829
13 | HMSPLPDRESLGAIEKLISLLGSSEWTVREKATRELGAFGYLARPVLQRELATSGDPEVSRRLERILSNL | -0.545
14 | HMSPLTPEEAEVLRILGDHGDMTVDNIATEGKMSAAAVLRVLGVLSAYGLAVPSGPGRWGSRAA | -0.462
15 | HMSPPPRPSHPEAAGLRHLAFEVDNIDDAVRHLDRLGVPHEPVRTDEYTGRRFLFFTDPDRLPLELYEK | -0.432
16 | HMSPQIDYFDDEELDVYRQIAPEAYTDEQIEVFRDILYTLRPEEVEEWLISLEKREINLPLILRQEAIELI | 0.481
17 | HMSPRQVTAVRSGSPMPVLPGEDWRLYDASGALVARGSGAAPIPKSTGLLRLNSEGLDGLADRWIWVL | -0.553

Row | Sequence | soluble fraction (log2)
18 | HMSPSRRENLTAAAKEYFVNTQIRHKTFGNGVIIKRSGNIAAIRFDNGTIKQIDLIAALQAKVLSIL | -2.71
19 | HMSPSTNKTFSFSKENISIGQTVFIKKLNQNATVLTLPNKSNQLQVQFGVITMNVKLEDLALPTN | -2.62
20 | HMSPTSSRAAQARIRKMIESESPLKPISDSQLAARLGEEGISIARRTVAKYREQMNILPASQRRGV | -0.351
21 | HMSPVPRIEIELTSSKEDGSWTWRAVGAREPRGSLDGALLAKPAAVGDVLRVETDQFLDGMTVTAILPPRD | -0.263
22 | HMSQAVEISSVKTQIDGKSYYLHTIKQGQTLYGISKAYGVSVEELTTVNPETSKGLKVGQIIKVPDTKT | 0.395
23 | HMSQDLVVLGDSMLNNALKAFHIDPNAIKKKYWDKLILDYHLKSKEEVLTEIALGKKINVMVAHQLTSIMD | 0.051
24 | HMSQEILSNQSIKDMIELGFEEQTIIDKIQTSTSDFDTTIEELKALKQLGASPTILSAMIKSIKK | 1.01
25 | HMSQLDITEARIVVSGGLGMQGPENFKLLEELAKVLGGAVGASRPVVDNGWREYSNQVGQTGKIVAPELYV | 0.0901
26 | HMSQLETEEAKRIVLKDLLRLYNNYNIIELEEDEFDRFITYLNMPYDFLQKTSDYDLAVSIKRMYASY | -2.28
27 | HMSQNISSTKLIPENIKIGMSVFVIPLQQKGIVQSLPNRSKEVLVQIGNAKINVKINNLKLIED | -0.142
28 | HMSQNTHTIPSREDILGIFRSVNAPLDPQSLGKTLQVHADSMDVLVRRLKAMERDGQLKSDASGVFSLAD | 0.185
29 | HMSQNVQDVFLNHVRKSKNPVTVFLVNGVKLQGIITWFDNFSVLLRREGHTQLVYKHAISTVMPSGPIQLF | 0.113
30 | HMSQPALSYAFAKAQGVIVTALGDVAEVARRKGSQPQALAEVRRIAGRPLALREVDDAAFDRLLQDHYARS | -0.646
31 | HMSQQMSYSDFVKAVSARQIREAQIQGDKIYATDSTGNRLTIIRLDNDQRLVDDMINNDVNIIGLEE | 0.177
32 | HMSQSDLASAIGARVTIRLREASGGFRDIVGVLQRFGSGYGELINSKGEALTFSESEIAIWREVKA | -2.5
33 | HMSQTELIIVEEEMDGERLDAFLAEQVEQLSRSAVKNLINEGQVLVNGAKQKASYHVREGDEISIEIPEPQ | 0.836
34 | HMSQTPDLQQERANLGDNADARIEAVDLWANKFFPEEHADAILQIGQTAKGIEALEFIMSKV | -0.0375
